The values that follow come from article PMC10696041 (2023).

The labels stand for the following.
B1: MBP-CUB1CUB2 domains of PCPE-2, WT [human] / bone morphogenetic protein-1 [human] (parent complex)
chain 1: QSPERPVFTCGGILTGESGFIGSEGFPGVYPPNSKCTWKITVPEGKVVVLNFRFIDLESDNLCRYDFVDVYNGHANGQRIGRFCGTFRPGALVSSGNKMMVQMISDANTAGNGFMAMFSAAEPNERGDQYCGGLLDRPSGSFKTPNWPDRDYPAGVTCVWHIVAPKNQLIELKFEKFDVERDNYCRYDYVAVFNGGEVNDARRIGKYCGDSPPAPIVSERNELLIQFLSDLSLTADGFIGHYIFRPK
chain 2: AATSRPERVWPDGVIPFVIGGNFTGSQRAVFRQAMRHWEKHTCVTFLERTDEDSYIVFTYRPCGCCSYVGRRGGGPQAISIGKNCDKFGIVVHELGHVVGFWHEHTRPDRDRHVSIVRENIQPGQEYNFLKMEPQEVESLGETYDFDSIMHYARNTFSRGIFLDTIVPKYEVNGVKPPIGQRTRLSKGDIAQARKLYKCPACGETLQDSTGNFSSPEYPNGYSAHMHCVWRISVTPGEKIILNFTSLDLYRSRLCWYDYVEVRDGFWRKAPLRGRFCGSKLPEPIVSTDSRLWVEFRSSSNWVGKGFFAVYEAICGGDVKKDYGHIQSPNYPDDYRPSKVCIWRIQVSEGFHVGLTFQSFEIERHDSCAYDYLEVRDGHSESSTLIGRYCGYEKPDDIKSTSSRLWLKFVSDGSINKAGFAVNFFKEVDECSRPNRGGCEQRCLNTLGSYKCSCDPGYELAPDKRRCEAACGGFLTKLNGSITSPGWPKEYPPNKNCIWQLVAPTQYRISLQFDFFETEGNDVCKYDFVEVRSGLTADSKLHGKFCGSEKPEVITSQYNNMRVEFKSDNTVSKKGFKAHFFSEKRPALQPPRGRPHQLKFRVQKRNRTPQ

Variants of B1 are the subject of this assay. Kind of assay: SPR; 50 nM MBP-CUB1CUB2; immobilized BMP-1 (1302 and 1492 RU); parent: 100; read off a plot. Background: In SPR one partner is held on a chip, and binding of the other changes the refractive index at the surface.
Regarding chain 1 R150A, the percent of parent is ~90 % binding / WT.

As to chain 1 F87A, the percent of parent was ~84 % binding / WT.
